This passage reports protein production results from a protein production outcome set (Wang et al. 2014).
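Further: failed if final PepcDB status was selected cloned or expressed and not failed if soluble or beyond.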

This data set can be described thus: label from the status in PepcDB records.
As to “AIATVYRLPASISFDEVIQRVSRENVGAVVRCAVGEEQLVVATSHRQEAWTVLKSFLINRCVPMEAREEEPSLGLEKPQYWDRLPANGRTPMERSDHGRGLEFQKSSQDDPVFEKECLLSGYGAQAPSQTGTESLQIPQVALLEEPVPPAYLKKAENAAVSFCGLVRKDRLSSDRVVSALVYESYREMAMLYIHRIAAEQNLHMFVHTVAGSVPVGSVSVLVTGPSVESVRLALEALKRYVPIWKEDVSVPCI”, the protein production entry is on record as “failed”.

On to “AIREREMKVLNIQVTSSCNYACGMCPFHGDGYSGEYFDERPTIRRDMSLDEIKLILEKASMEGFEWIDLTPNGEFFTHKQWYQILSLIKEFGLKIMITSNGGLLGEEDIKRACEVGVDHIVISVDSLSYESYKKIRKPATKLAFERAIHAPLYFKKYG”, for which the protein production result is recorded as “failed”.

For “AKAPQKKHKVLLQQFNTGDERAQKRQPIRGSDEVLFKVYCMDHTYTTIRVPVATSVKEVISAVADKLGSGEGLIIVKMSSGGEKVVLKPNDVSVFTTLTINGRLFACPREQFDSLTPLPEQEGPTVGTVGTFELMSSKDLAYQMTIYDWELFNCVHELELIYHTFGRHNFKKTTANLDLFLRRFNEIQFWVVTEICLCSQLSKRVQLLKKFIKIAAHCKEYKNLNSFFAIVMGLSNVAVSRLALTWEKLPSKFKKFYAEFESLMDPSRNHRAYRLTVAKLEPPLIPFMPLLIKDMTFTHEGNKTFIDNLVNFEKMRMIANTARTVRYYRSQPFNPDAAQANKNHQDVRSYVRQLNVIDNQRTLSQMSHRLEPRRP”, the protein production result is reported as “failed”.

With “AKDALLLWCQMKTAGYPNVNVHNFTTSWRDGLAFNAIVHKHRPDLLDFESLKKCNAHYNLQNAFNLAEKELGLTKLLDPEDVNVDQPDEKSIITYVATYYHYFSKMKALAVEGK”, the protein production entry was “not failed”.

With “ALPPEPKEENAEPVSKLRIRTPSGEFLERRFLASNKLQIVFDFVASKGFPWDEYKLLSTFPRRDVTQLDPNKSLLEVKLFPQETLFLEAKE”, the protein production result is “failed”.

Regarding “ANFADSGKSLPPSMTSVPVTPVAAHTSSTPLTDIAADTTANDAPAIAAEFGQPDWPEEFGRKITWLATQRMQAAELKLHPAHLGPIEISLQLSDDQRLTAQFISHHPAVREAIEANLPRLREIMAENGITLADTSVSADT”, the protein production result was “not failed”.

As for “ANGTVATAAIQPKKVKGVGFGDIFKDKPIKLRPRSIEVENDFLPVEKTIGKKLPATTATPDSSKTEMDSRTKSKDYCKVIFPYEAQNDDELTIKEGDIVTLINKDCIDVGWWEGELNGRRGVFPDNFVKLLPPDFEKEGNR”, the protein production result was “failed”.

Take “ANMHIFENPSALAEALADDVGARLAAAIAARGTASLAVSGGSTPKAFFRSLSRRELDWSKVTVTLVDERFVPPENDRSNHRLVADNLLKDGAAEARFVPLYQAAETAEAAAAIASGRTASLGAPLDVVVLGMGTDGHTASFFPGGTRLEEALDPTTPRGVITMEAEGAGEPRLTFTFSSLQDAGYLVLHIEGSGKKEVLAQAEASGDEAEMPIRAMLRRAASPLQIYWAP”: the protein production entry is given as “failed”.

On to “APFFEMKLKHYKIFEGMPVTFTCRVAGNPKPKIYWFKDGKQISPKSDHYTIQRDLDGTCSLHTTASTLDDDGNYTIMAANPQGRISCTGRLMVQAVN”, for which the protein production entry is recorded as “not failed”.

As to “APGTLVLAGTPIGDITDAPPRLAQELAGADVVAAEDTRRLRRLTQALGVQPAGRVVSYFEGNEAARTPELVEALLDGSRVLLVTDAGMPSVSDPGYRLVAAAVAKDIRVTAVPGPS”, the protein production result was “failed”.

With “AQDLYQNLESKVAQKTREVEEQNLRLKTLYDMTSFLHQQRALDETCQGFIRRLMQLTGADAANARLVDPERGKLDQIAQQGLPAEMALNEECIPDDACHCGEAVQQPFAVLRHIGELEGEEIRHCRKAGFASIAVFHIRNQREDVGIFTLYFRQKRVLSMAEQMLIETLGQHLGVAIEN”, the protein production result is on record as “failed”.

Turning to “AQGQRRAPLSVVFTEPQVASVGLSLRQIEDLYADQDAANYVVGQVSFEGQGRSRVMGKNKGLLNVYADRTSGEFLGAEMFGPAAEHIGHLLAWARQQQMTVQAMLTMPFYHPVIEEGLRTALRDAQQKLA”, the protein production entry is recorded as “not failed”.

Regarding “AQGVGVEAILLLRRECQASHEDALHLGLAEHAPVIELQTLRKLDGQAVSLIFHRYSAVYHELLADYQGGSVRQYLAECGLPLSRAQSLIGARLPSREEAGLLLMPRHMPALTVLTVSCDGAGQPVELSRSVSRSDRFQ”, the protein production entry was “failed”.

In the case of “AQKKTQKTYIPWSNGKLVVSEEGRYLKHENGTPFFWLGETGWLLPERLNRDEAEYYLEQCKRRGYNVIQVQTLNNVPSMNIYGQYSMTDGYNFKNINQKGVYGYWDHMDYIIRTAAKKGLYIGMVCIWGSPVSHGEMNVDQAKAYGKFLAERYKDEPNIIWFIGGDIRGDVKTAEWEALATSIKAIDKNHLMTFHPRGRTTSATWFNNAPWLDFNMFQSGHRRYGQRFGDGDYPIEENTEEDNWRFVERSMAMKPMKPVIDGEPIYEEIPHGLHDENELLWKDYDVRRYAYWSVFAGSFGHTYGHNSIMQFIKPGVGGAYGAKKPWYDALNDPGYNQMKYLKNLMLTFPFFERVPDQSVIAGQNGERYDRAIATRGNDYLMVYNYTGRPMEVDFSKISGAKKNAWWYTTKDGKLEYIGEFDNGVHKFQHDSGYSSGNDHVLIVVDSSKDYVKKDCYQIDTHE”, the protein production entry is reported as “not failed”.

For the sequence “ARNGDDCPLGPGRCCRLHTVRASLEDLGWADWVLSPREVQVTMCIGACPSQFRAANMHAQIKTSLHRLKPDTEPAPCCVPASYNPMVLIQKTDTGVSLQTYDDLLAKDCHCI”, the protein production entry is recorded as “failed”.

Take “ARQRFIYIARHRSENIAYYAQALKIDGMVLKAESRRFYPLAEEASQLIGFTDVDDQQGSEGLERSFNSLLVGKNGKQIIRKDARGNVIENIRDEKQYDPQDVMLSID”: the protein production entry is on record as “failed”.

“ASEGEKHITVTVIHGDQTENVFEFDTDAKYLGEVLESENLVDGESGEYGLFITTVDEETADDSKQQWWCITKGGEQVNTSADQTPVSDGDAFELTLKEGY”: the protein production entry was “not failed”.

“ATRRYYLGAVELSWDYMQSDLGELPVDARFPPRVPKSFPFNTSVVYKKTLFVEFTDHLFNIAKPRPPWMGLLGPTIQAEVYDTVV”: the protein production result is “failed”.

With “AVYLDCRDLQRTWEVIFNLFEPELQEFTRKVPINHIRQLVEHKHAKPVFSSPIVEGETVMVSCQFTCMEKTIKVYGFGSNKDQAKLSAAKHALQQLSKCDA”, the protein production result is “failed”.

Take “CEGGVDMQQSQVQLQCPLTPPRGLQVSIQGEAVAVRPGEDVLFVVRQEQGDVLTTKYQVDLGDGFKAMYVNLTLTGEPIRHRYESPGIYRVSVRAENTAGHDEAVLFVQV”: the protein production result was “not failed”.

Take “CFVTRIRLLDSNVIECTLSVESTGQECLEAVAQRLELRETHYFGLWFLSKSQQARWVELEKPLKKHLDKFANEPLLFFGVM”: the protein production result is given as “failed”.

On to “DDDEPGGKGAMYEVTIEQSGDFRSFIKSVVVVANGTQLKDGATGESLASPVILSDEELAVEKVTLSTTGKAIEFAVSGGVVDGEDGVVNEPMQWVVTVYKNGKEIEKKSLVFRDGKEISTDDLNLYYN”, for which the protein production entry is reported as “not failed”.

For the sequence “DDFEDSLEYLEPLDHDAYIVRLNFTGENTTEPIISYMTKTHNIDVNILEADIKNTKNGSLGFLVIHIPHISEEHFKQFKHNLHEQHVNVEVLKHG”, the protein production result is “not failed”.

Regarding “DDGVVAAAAFDADRTDPDTLCVRYITVRQDRQGDRLGARLLRFVRERATERGFEHVSIGVNNPFSYQAAYRAGFCFSG”, the protein production entry is “failed”.

With “DDLIFYKGVDGRYLGANKAFCDFFGKESMEGLSDADILDAEQLRLTQKSDEEVVRFRKNIRLEYGGGHPLRGRFFFSITKSPILLRGKVVGILGIARD”, the protein production result is recorded as “failed”.

As for “DDPEQFEVIKQQKEIIEHGIELFNKKPKRGIQFLQEQGMLGTSVEDIAQFLHQEERLDSTQVGDFLGDSARFNKEVMYAYVDQLDFCEKEFVSALRTFLEGFRLPGEAQKIDRLMEKFAARYIECNQGQTLFASADTAYVLAYSIIMLTTDLHSPQVKNKMTKEQYIKMNRGINDSKD”, the protein production result is listed as “failed”.
